# In US20260347449 (published 2026):
# Where two headings read alike, the source gives them in different places.
# T1: cynomolgus C5 (cynomolgus)
# T1 chain: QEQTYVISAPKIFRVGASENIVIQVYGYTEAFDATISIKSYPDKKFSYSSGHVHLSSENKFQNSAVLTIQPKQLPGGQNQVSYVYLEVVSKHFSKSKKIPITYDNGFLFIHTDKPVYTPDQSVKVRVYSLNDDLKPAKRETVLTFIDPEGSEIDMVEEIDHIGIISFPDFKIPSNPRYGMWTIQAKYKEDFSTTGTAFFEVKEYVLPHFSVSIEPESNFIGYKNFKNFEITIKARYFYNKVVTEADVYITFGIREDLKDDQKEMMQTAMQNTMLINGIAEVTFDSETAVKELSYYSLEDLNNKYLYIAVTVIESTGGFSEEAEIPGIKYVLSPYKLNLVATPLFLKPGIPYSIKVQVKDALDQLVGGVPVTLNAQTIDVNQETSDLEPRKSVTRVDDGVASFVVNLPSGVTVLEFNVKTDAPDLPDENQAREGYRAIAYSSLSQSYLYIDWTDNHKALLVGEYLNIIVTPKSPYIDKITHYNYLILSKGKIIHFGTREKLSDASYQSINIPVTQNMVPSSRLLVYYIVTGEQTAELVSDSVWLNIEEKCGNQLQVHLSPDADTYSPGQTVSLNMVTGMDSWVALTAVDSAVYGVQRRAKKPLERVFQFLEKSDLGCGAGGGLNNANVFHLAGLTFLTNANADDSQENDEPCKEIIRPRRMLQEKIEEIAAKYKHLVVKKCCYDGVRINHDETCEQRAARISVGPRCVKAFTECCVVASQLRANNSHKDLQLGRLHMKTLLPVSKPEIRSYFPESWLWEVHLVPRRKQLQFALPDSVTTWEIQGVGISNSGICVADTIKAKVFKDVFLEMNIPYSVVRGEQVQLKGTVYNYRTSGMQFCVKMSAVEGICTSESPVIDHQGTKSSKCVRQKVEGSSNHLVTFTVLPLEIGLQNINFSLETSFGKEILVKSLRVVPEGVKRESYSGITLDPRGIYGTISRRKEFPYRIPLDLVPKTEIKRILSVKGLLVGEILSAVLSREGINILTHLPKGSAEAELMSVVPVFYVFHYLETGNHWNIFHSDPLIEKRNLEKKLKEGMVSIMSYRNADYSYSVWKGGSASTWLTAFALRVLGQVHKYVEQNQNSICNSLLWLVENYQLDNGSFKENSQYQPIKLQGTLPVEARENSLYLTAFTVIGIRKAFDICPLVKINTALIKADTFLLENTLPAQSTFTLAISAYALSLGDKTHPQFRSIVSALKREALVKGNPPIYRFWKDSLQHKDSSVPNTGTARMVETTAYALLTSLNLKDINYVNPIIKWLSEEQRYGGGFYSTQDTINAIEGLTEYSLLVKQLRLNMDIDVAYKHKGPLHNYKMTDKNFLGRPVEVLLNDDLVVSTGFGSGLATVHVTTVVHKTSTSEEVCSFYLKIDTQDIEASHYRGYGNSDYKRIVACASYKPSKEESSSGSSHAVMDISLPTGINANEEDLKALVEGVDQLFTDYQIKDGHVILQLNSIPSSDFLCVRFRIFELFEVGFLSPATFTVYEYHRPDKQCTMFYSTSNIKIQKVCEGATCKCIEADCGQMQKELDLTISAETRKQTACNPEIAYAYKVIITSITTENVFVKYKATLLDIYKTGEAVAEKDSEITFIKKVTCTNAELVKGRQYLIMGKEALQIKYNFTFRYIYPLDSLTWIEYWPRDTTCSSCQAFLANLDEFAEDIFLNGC
# Key:
# human C5 [1] = biological target: T2, human C5 (human, UniProt P01031); assay: BLI
# human C3 [2] = biological target: T3, human C3 (human, UniProt P01024); assay: BLI
# human C3 [3] = biological target: T3, human C3; assay: BLI; remark: listed apart in the source
# cynomolgus C5 = biological target: T1, cynomolgus C5; assay: BLI
# human C5 [4] = biological target: T2, human C5; assay: ELISA
# human C3 [5] = biological target: T3, human C3; assay: BLI; remark: listed apart in the source
# human C5 W917S = human C5 W917S (human, UniProt P01031); assay: BLI
# human C5 [6] = biological target: T2, human C5; assay: BLI; remark: listed apart in the source
# human C3 [7] = biological target: T3, human C3; assay: BLI; remark: listed apart in the source
# human C5 [8] = biological target: T2, human C5; assay: BLI; remark: listed apart in the source
# human C3 [9] = biological target: T3, human C3; assay: ELISA
# human C3 [10] = biological target: T3, human C3; assay: BLI, bivalent
binder,measurement,setting,value
"C3N10.3 (antibody, V domains shown) VH: EVQLVESGGGLVQAGGSLRLACAASGLTFSPYAMGWFRQAPGKEREFVAGIRWISGNPYYADSVKGRFTISRDNSKNTLYLQMNSLRPEDTAVYSCAAAPLTRSYDYWGQGTLVTVSS",binding result,human C5 [1],no binding
same,Kd,human C3 [2],5 nM
same,Kd,human C3 [3],5.32 nM
same,binding result,cynomolgus C5,no binding
"C5S12 (antibody, V domains shown) VH: QVQLQESGGGLVQAGGSLRLSCAASGYIFPSDDMGWYRQAPGKEREFVAAINDGASTYYADSVKGRFTISRDNAKNTVYLQMNSLKPEDTAVYYCAVQLNYYWDYVYWGQGTQVTVSS",binding result,human C5 [4],no binding
"C3N10 (antibody, V domains shown) VH: DVQLVESGGGLVQAGGSLRLACAASGLTFSPYAMGWFRQAPGKEREFVAGIRWISGNPYYADSVKGRFTISRDNAKNTVYLQMNSLKPEDTAVYSCAAAPLTRSYDYWGQGTQVTVSS",binding result,human C5 [1],no binding
same,Kd,human C3 [5],7.6 nM
same,Kd,human C3 [3],3.64 nM
same,binding result,cynomolgus C5,no binding
"eculizumab (antibody, V domains shown) VH: QVQLVQSGAEVKKPGASVKVSCKASGYIFSNYWIQWVRQAPGQGLEWMGEILPGSGSTEYTENFKDRVTMTRDTSTSTVYMELSSLRSEDTAVYYCARYFFGSSPNWYFDVWGQGTLVTVSS VL: DIQMTQSPSSLSASVGDRVTITCGASENIYGALNWYQQKPGKAPKLLIYGATNLADGVPSRFSGSGSGTDFTLTISSLQPEDFATYYCQNVLNTPLTFGQGTKVEIKR",binding result,human C5 W917S,no binding
"C3I22 (antibody, V domains shown) VH: DVQLVESGGGLVQPGGSLRLSCTASGFTFGVYAMSWVRQAPGKGLEWVSSIDSGVNTAYADSVKGRFTISRDNAINTVFLQMNSLKPEDTAVYHCALGRESDYEPVTGSWGQGTQVTVSS",Kd,human C3 [5],3.9 nM
"C3S3.2 (antibody, V domains shown) VH: EVQLVESGGGLVQAGGSLRLSCAASGTIFSRNYMGWYRQAPGKERELVAGIGYGSSTNYADSVKGRFTISRDNSKNTLYLQMNSLRPEDTAVYYCAAVPTYRPYYFYWGQGTLVTVSS",binding result,human C5 [1],no binding
same,Kd,human C3 [2],6 nM
same,Kd,human C3 [3],5.83 nM
same,binding result,cynomolgus C5,no binding
"C3S3 (antibody, V domains shown) VH: QVQLQESGGGLVQAGGSLRLSCAASGTIFSRNYMGWYRQAPGKERELVAGIGYGSSTNYADSVKGRFTISRDNAKNTVYLQMNSLKPEDTAVYYCAAVPTYRPYYFYWGQGTQVTVSS",binding result,human C5 [1],no binding
same,Kd,human C3 [5],23 nM
same,Kd,human C3 [3],4.97 nM
same,binding result,cynomolgus C5,no binding
"C3S8 (antibody, V domains shown) VH: QVQLQESGGGLVQAGGSLRLSCAASGTIFPTDRMGWYRQAPGKEREFVATIDLGGTTNYADSVKGRFTISRDNAKNTVYLQMNSLKPEDTAVYYCAAAWEGPSRYGRHRYYSHRYWGQGTQVTVSS",Kd,human C3 [5],14 nM
"C5S5 (antibody, V domains shown) VH: QVQLQESGGGLVQAGGSLRLSCAASGTISPYEGMGWYRQAPGKERELVAAIDGGGITYYADSVKGRFTISRDNAKNTVYLQMNSLKPEDTAVYYCAAGIWTLSYYDYWGQGTQVTVSS",Kd,human C5 [6],13 nM
C3I8 (designed binder) DVQLVESGGGLVQPGGSLRLSCATSGFSFGVYDMSWVRQASGKGLEWVSGIDSGSNTAYADSVKVRFTISRDNAKNTLYLQMNNLKPEDTAVYYCALGRETDYIPVTDFRTQGTQVTVSS,Kd,human C3 [5],4.8 nM
"C3I4 (antibody, V domains shown) VH: DVQLVESGGGLVQPGGSLRLSCATSGFTLDYYAIGWFRQAPGKEREGVSCITGPDGSTHYADSVKGRFTISRDNAKNTVYLQMNSLKPEDTAVYYCAATAGLYGCGYGMDHWGKGTQVTVSS",Kd,human C3 [5],27 nM
"C5S2 (antibody, V domains shown) VH: QVQLQESGGGLVQAGGSLRLSCAASGNIFHQSDMGWYRQAPGKEREFVAAIDYGTNTYYADSVKGRFTISRDNAKNTVYLQMNSLKPEDTAVYYCAARDTSYWDHVYWGQGTQVTVSS",binding result,human C3 [7],no binding
same,binding result,cynomolgus C5,no binding
same,Kd,human C5 [8],6.29 nM
same,Kd,human C5 [6],1.98 nM
"C5S1 (antibody, V domains shown) VH: QVQLQESGGGLVQAGGSLRLSCAASGYISYDDDMGWYRQAPGKEREFVAAIDVGGSTYYADSVKGRFTISRDNAKNTVYLQMNSLKPEDTAVYYCAVRDGYYWDHDYWGQGTQVTVSS",Kd,human C5 [6],9.5 nM
"C3I3 (antibody, V domains shown) VH: DVQLVESGGGLVQPGGSLRLSCAASGFTLDNYAIAWFRQAPGKEREGVSCISSSRGSTAYEDSVKGRFTIARDNAKNTVYLQMNSLKPEDTAVYYCAARARGMCREFDYDYWGQGTQVTVSS",Kd,human C3 [5],17 nM
"C3S10 (antibody, V domains shown) VH: QVQLQESGGGLVQAGGSLRLSCAASGYISGGSIMGWYRQAPGKEREFVAGINQGSNTYYADSVKGRFTISRDNAKNTVYLQMNSLKPEDTAVYYCAVGGRSYYYHHYWGQGTQVTVSS",binding result,human C3 [9],no binding
"C3S5 (antibody, V domains shown) VH: QVQLQESGGGLVQAGGSLRLSCAASGTIFDDESMGWYRQAPGKEREFVASINYGSTTYYADSVKGRFTISRDNAKNTVYLQMNSLKPEDTAVYYCAVGWSTNYDWTLSYYYWGQGTLVTVSS",binding result,human C3 [9],no binding
"C5S8 (antibody, V domains shown) VH: QVQLQESGGGLVQAGGSLRLSCAASGNIFDEWDMGWYRQAPGKEREFVAAIDDGASTYYADSVKGRFTISRDNAKNTVYLQMNSLKPEDTAVYYCAARQTYAWDYRYWGQGTQVTVSS",Kd,human C5 [6],7 nM
"C3N10.3-Fc (antibody, V domains shown) VH: EVQLVESGGGLVQAGGSLRLACAASGLTFSPYAMGWFRQAPGKEREFVAGIRWISGNPYYADSVKGRFTISRDNSKNTLYLQMNSLRPEDTAVYSCAAAPLTRSYDYWGQGTLVTVSS",Kd,human C3 [10],3.25 nM
"C3S3.2-Fc (antibody, V domains shown) VH: EVQLVESGGGLVQAGGSLRLSCAASGTIFSRNYMGWYRQAPGKERELVAGIGYGSSTNYADSVKGRFTISRDNSKNTLYLQMNSLRPEDTAVYYCAAVPTYRPYYFYWGQGTLVTVSS",Kd,human C3 [10],0.703 nM
"C3S6 (antibody, V domains shown) VH: QVQLQESGGGLVQAGGSLRLSCAASGNIFVGHGMGWYRQAPGKEREFVAAIGYGAITNYADSVKGRFTISRDNAKNTVYLQMNSLKPEDTAVYYCAASSYYPPRYWYWGQGTLVTVSS",Kd,human C3 [5],20 nM
